From patent US20220332800A1 come the findings set out here.

Test [1] addresses ZIKV-VLP (Native Antigen Inc.) (Zika virus). Put plainly: BLI binning on ZIKV-VLP; 1st mAb: 11-3.
Test [2] has the same target. Put plainly: indirect ELISA, purified antibody serially diluted from 10 µg/ml.
Test [3] concerns the target purified inactivated Zika virus (PIZV) (Zika virus). Described as above.
In test [4] the target is ZIKV-VLP (Native Antigen Inc.) (Zika virus). The test can be described thus: BLI binning on ZIKV-VLP; 1st mAb: 78-2.
Test [5] has the same target. The test can be described thus: BLI binning on ZIKV-VLP; 1st mAb: 4G2.
Test [6] shares this target. The test can be described thus: BLI binning on ZIKV-VLP; 1st mAb: 289-3.
The target is the same in test [7]. The test can be described thus: BLI binning on ZIKV-VLP; 1st mAb: 270-12.
Test [8] shares this target. The test can be described thus: BLI binning on ZIKV-VLP; 1st mAb: C10.
For test [9] the target is unchanged. The test can be described thus: BLI binning on ZIKV-VLP; 1st mAb: Ab1.
Test [10] has the same target. Put plainly: BLI binning on ZIKV-VLP; 1st mAb: 260-2.
Test [11] shares this target. The test can be described thus: BLI binning on ZIKV-VLP; 1st mAb: 306-2.
Test [12] shares this target. The test can be described thus: BLI binning on ZIKV-VLP; 1st mAb: Ab2.
Test [13] shares this target. The test can be described thus: BLI binning on ZIKV-VLP; 1st mAb: 242-3.
Test [14] has the same target. The test can be described thus: BLI binning on ZIKV-VLP; 1st mAb: 102-1.
The target is the same in test [15]. Put plainly: BLI binning on ZIKV-VLP; 1st mAb: 329-2.
For test [16] the target is unchanged. The test can be described thus: BLI binning on ZIKV-VLP; 1st mAb: 181-4.
Test [17] shares this target. Put plainly: BLI binning on ZIKV-VLP; 1st mAb (row): C10.
The target is the same in test [18]. Put plainly: BLI binning on ZIKV-VLP; 1st mAb (row): 102-1.
The target is the same in test [19]. Put plainly: BLI binning on ZIKV-VLP; 1st mAb (row): 270-12.
For test [20] the target is unchanged. Put plainly: BLI binning on ZIKV-VLP; 1st mAb (row): 306-2.
Test [21] has the same target. The test can be described thus: BLI binning on ZIKV-VLP; 1st mAb (row): 242-3.
The target of test [22] is Zika PRVABC59 live virus (Zika virus). Put plainly: cell-based or functional assay.
In test [23] the target is ZIKV-VLP (Native Antigen Inc.) (Zika virus). The test can be described thus: BLI binning on ZIKV-VLP; 1st mAb (row): 289-3.

For the substance “4G2 (commercially-available anti-dengue antibody)”, the response of 2nd mAb in test [1] was 0.52; in test [4] it was 0.17; in [5] it was 0.62; in [6], 0.51; in test [7] it was 0.43; in test [8], 0.54. Also, the response of 2nd mAb in [9] is 0.52; in test [10] it was 0.54; in test [11], 0.43; in [12], -0.08; in test [13], 0.52; in [14], 0.46. Further, the response of 2nd mAb in [15] worked out at 0.51; in test [16], 0.5. The EC50 (half-maximal binding concentration) in [2] was 0.33 mg/L. This substance also returned an EC50 in test [3] of 0.0182 mg/L.
Take “C10 (commercially-available anti-dengue antibody)”: the response of 2nd mAb in test [1] is 0.63; in test [17], -0.0123; in test [4], 0.56; in test [18], -0.0138; in [5], 0.24; in [19], -0.0081. The response of 2nd mAb was 0.63 in test [6]; 0.58 in [7]; 0.17 in test [8]; 0.66 in test [9]; 0.0209 in [20]; 0.61 in test [10]. Moreover, the response of 2nd mAb in [11] was 0.62; in [12] it was 0.05; in test [13], 0.59; in [14], 0.68; in [21], -0.0078; in [15], 0.57. In addition, the values for the response of 2nd mAb in [16] and in test [23] were 0.55 and -0.0388, respectively. Further, the values for the EC50 (half-maximal binding concentration) in [2] and in test [3] were 0.162 mg/L and 0.0268 mg/L, respectively. The same substance registered an MNT IC50 (ng/mL) of Purified antibody in test [22] of 306 ng/mL.
